Test results from PMC8717942.

Tests used:
K29-linked diubiquitin [1] = biological target: K29-linked diubiquitin (UniProt P0CG48); test: crystal structure
K29-linked diubiquitin [2] = biological target: K29-linked diubiquitin (UniProt P0CG48); test: Western blot
[3] = biological target: His-tagged K29-linked diubiquitin (UniProt P0CG48); test: SPR
[4] = biological target: biotinylated K29-linked diUb (chemically synthesized) (UniProt P0CG48); test: ELISA

stoichiometry N (K29-linked diubiquitin [1]): 1
fold more sensitive than for the other diUbs tested (K29-linked diubiquitin [2]): > 320 fold
lowest amount detected (K29-linked diubiquitin [2]): 0.78 ng
Kd [3]: 3.13 nM
EC50 [4]: 1.46 nM
B1: sAB-K29 (Fab, V domains shown)
VH: EVQLVESGGGLVQPGGSLRLSCAASGFNVSYSSIHWVRQAPGKGLEWVASIYSYYGSTYYADSVKGRFTISADTSKNTAYLQMNSLRAEDTAVYYCARYGFAGQPETWYAMDYWGQGTLVTVSS
VL: DIQMTQSPSSLSASVGDRVTITCRASQSVSSAVAWYQQKPGKAPKLLIYSASSLYSGVPSRFSGSRSGTDFTLTISSLQPEDFATYYCQQAYVEPITFGQGTKVEIK
